Source: paper PMC12220977 (2025)
Substitutions are numbered along the chain they refer to.

T1: SorLA VPS10 domain (vacuolar protein sorting 10 domain)
T1 chain: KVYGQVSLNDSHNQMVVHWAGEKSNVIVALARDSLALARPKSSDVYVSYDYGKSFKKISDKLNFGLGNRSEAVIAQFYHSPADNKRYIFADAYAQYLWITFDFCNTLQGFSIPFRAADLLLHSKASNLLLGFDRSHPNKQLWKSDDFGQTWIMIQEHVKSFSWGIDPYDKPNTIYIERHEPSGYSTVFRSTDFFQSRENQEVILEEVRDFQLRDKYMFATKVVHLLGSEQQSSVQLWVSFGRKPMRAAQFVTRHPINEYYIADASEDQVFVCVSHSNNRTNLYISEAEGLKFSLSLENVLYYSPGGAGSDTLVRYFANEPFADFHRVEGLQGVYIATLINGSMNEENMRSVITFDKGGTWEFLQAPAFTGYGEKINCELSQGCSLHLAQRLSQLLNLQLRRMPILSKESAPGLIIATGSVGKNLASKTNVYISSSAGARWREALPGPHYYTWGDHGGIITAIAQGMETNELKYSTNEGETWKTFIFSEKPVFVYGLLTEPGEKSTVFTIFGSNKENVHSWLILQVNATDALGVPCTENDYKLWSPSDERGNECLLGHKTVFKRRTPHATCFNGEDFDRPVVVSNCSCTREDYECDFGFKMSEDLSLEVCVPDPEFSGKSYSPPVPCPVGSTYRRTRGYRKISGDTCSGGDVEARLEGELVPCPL

B1: PAI-1WT (wild-type plasminogen activator inhibitor 1, recombinant) (natural protein)
chain: VHHPPSYVAHLASDFGVRVFQQVAQASKDRNVVFSPYGVASVLAMLQLTTGGETQQQIQAAMGFKIDDKGMAPALRHLYKELMGPWNKDEISTTDAIFVQRDLKLVQGFMPHFFRLFRSTVKQVDFSEVERARFIINDWVKTHTKGMISHLLGTGAVDQLTRLVLVNALYFNGQWKTPFPDSSTHRRLFHKSDGSTVSVPMMAQTNKFNYTEFTTPDGHYYDILELPYHGDTLSMFIAAPYEKEVPLSALTNILSAQLISHWKGNMTRLPRLLVLPKFSLETEVDLRKPLENLGMTDMFRQFQADFTSLSDQEPLHVALALQKVKIEVNESGTVASSSTAVIVSARMAPEEIIIDRPFLFVVRHNPTGTVLFMGQVMEP
B2: PAI-1AK (PAI-1 Arg101Ala, Gln123Lys) (natural protein)
chain: B1 chain with R101A, Q123K

Legend:
[1] = molecular target: PAI-1WT (wild-type plasminogen activator inhibitor 1, recombinant) (UniProt P05121); assay: SPR; competition: 250 nM PAI-1WT preincubated with increasing concentrations of SMB, then flowed over immobilised full-length SorLA; HBS-P buffer with 1.0 mM CaCl2, pH 7.4, 25°C
[2] = molecular target: T1, SorLA VPS10 domain (vacuolar protein …); assay: SPR
[3] = molecular target: T2, Soluble full-length SorLA (sortilin-related receptor 1) (UniProt Q92673 82-2137); assay: SPR
[4] = molecular target: T2, Soluble full-length SorLA …; assay: SPR; SorLA or its VPS10 domain immobilised on a CM5 chip (5,000 and 2,500 RU); PAI-1 flowed over; HBS-P buffer with 1.0 mM CaCl2, pH 7.4, 25°C, 20 uL/min; equilibrium analysis (Req/Rmax), single binding site

Molecule | IC50 [1] | Kd [2] | Kd [3] | Kd [4]
Somatomedin B (SMB) domain of vitronectin (VTN) (from UniProt P04004 20-63) (domain or fragment) | 464 nM |  |  | 
B1 |  | 1590 nM | 102 nM | 126 nM
B2 |  |  | 491 nM | 540 nM
